Data from US20100135951A1.

Molecular target: TRAIL-R2 (human) (UniProt O14763)
Assay: cell-based or functional assay

TRAIL-R2 (human), sequence (O14763 other isoform, or with tags, fused parts or gaps limits assumed): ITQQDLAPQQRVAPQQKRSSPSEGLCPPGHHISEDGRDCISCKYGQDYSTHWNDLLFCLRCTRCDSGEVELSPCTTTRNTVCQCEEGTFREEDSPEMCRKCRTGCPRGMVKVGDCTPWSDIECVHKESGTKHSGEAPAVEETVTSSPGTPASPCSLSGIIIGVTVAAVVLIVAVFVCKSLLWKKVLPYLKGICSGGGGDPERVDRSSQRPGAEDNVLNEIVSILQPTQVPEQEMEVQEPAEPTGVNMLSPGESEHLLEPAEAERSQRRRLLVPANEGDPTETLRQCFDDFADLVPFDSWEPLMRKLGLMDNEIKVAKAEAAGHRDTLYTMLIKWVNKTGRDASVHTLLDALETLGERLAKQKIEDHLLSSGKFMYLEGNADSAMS

TRA-8 (antibody) was tested, and the cell death (ATPLITE cell viability assay) was 100%.
